The target of this experiment is Filamentous actin, pre-formed actin filaments derived from rabbit skeletal muscle (rabbit, UniProt P68135 1-377). The experiment can be described thus: co-sedimentation; F-actin spin-down; constant 0.5 μM F-actin with varying concentrations of PAM-CD; PAM-CD in supernatants and pellets by electrophoretic analysis; Scatchard analysis of three experiments. The note with it: both partners purified.

B1: Peptidylglycine α-amidating monooxygenase cytosolic C-terminal domain, recombinant rat PAM(898–976) (domain or fragment)
chain: FGDHDRKLESSSGRVLGRFRGKGSGGLNLGNFFASRKGYSRKGFDRVSTEGSDQEKDEDDGTESEEEYSAPLPKPAPSS
notes: Peptidylglycine alpha-amidating monooxygenase (PAM), rat, cytosolic C-terminal domain, residues 898-976; no tag is mentioned; also called PAM-CD; rat PAM-CD; source: E. coli BL21(DE3), pET-11CD vector, purified
The Kd is the equilibrium constant for the complex coming apart. Higher therefore signals lower affinity. The molecule B1 yielded a dissociation constant Kd of 600 nM.
